What was measured:
[1] = biological target: T1, IDX-1 (GST fusion, full length) (Rattus norvegicus, UniProt P52947 SEQ:1-283); test: EMSA; several complexes; conditions: tags: N-terminal GST (pGEX-KG), bacterially expressed; label: 32P
Method: (§1) Electrophoretic mobility shift assays (EMSA) were performed as described (Ron et al., 1990, Mol. and Cell. Biol. 10:1023) using bacterially-expressed IDX-1 or nuclear extracts prepared from RIN1027-B2 cells (Dignam et al., 1983, supra). PCR was used to generate a bacterial expression vector encoding the full length IDX-1 protein fused to glutathione S-transferase(GST). An oligonucleotide amplimer was designed to create an NcoI site at the initiation methionine of the IDX-1 cDNA. This primer was used in conjunction with the T3 primer to amplify the IDX-1 cDNA insert from an IDX-1/pBS(KS) subclone. The PCR product was digested with NcoI and XhoI, gel-purified, and ligated into NcoI/XhoI-cut pGEX-KG (Pharmacia Biotech Inc., Piscataway, N.J.). Expression and purification of the GST/IDX-1 fusion protein was performed as described (Smith and Johnson, 1988, supra).
(§2) Nuclear extracts form RIN1027-B2 cells or purified bacterially-expressed GST/IDX-1 were incubated with the following ^32P-labelled double-stranded oligonucleotide probes: 1) INS1-FLAT, the Far-linked AT-rich element of the rat insulin 1 gene (German et al., 1992, Mol. Cell. Biol. 12:1777) (5'-[…]-3'); 2) SMS-TAAT1, a FLAT-like element (5'-[…] […]

[2] = biological target: T1, IDX-1 (GST fusion, full length); test: EMSA; conditions: tags: N-terminal GST (pGEX-KG), bacterially expressed; label: 32P
Method: as §1, §2

[3] = biological target: T1, IDX-1 (GST fusion, full length); test: EMSA; data not shown; protein preparation not stated; conditions: tags: N-terminal GST (pGEX-KG), bacterially expressed
[4] = biological target: IDX-1 (IDX-1/pBJ5 expressed in NIH-3T3) (Rattus norvegicus, UniProt P52947 SEQ:1-283); test: cell_activity; CAT reporter in NIH-3T3
Chain of IDX-1 (IDX-1/pBJ5 expressed in NIH-3T3) (P52947 other isoform, or with tags, fused parts or gaps): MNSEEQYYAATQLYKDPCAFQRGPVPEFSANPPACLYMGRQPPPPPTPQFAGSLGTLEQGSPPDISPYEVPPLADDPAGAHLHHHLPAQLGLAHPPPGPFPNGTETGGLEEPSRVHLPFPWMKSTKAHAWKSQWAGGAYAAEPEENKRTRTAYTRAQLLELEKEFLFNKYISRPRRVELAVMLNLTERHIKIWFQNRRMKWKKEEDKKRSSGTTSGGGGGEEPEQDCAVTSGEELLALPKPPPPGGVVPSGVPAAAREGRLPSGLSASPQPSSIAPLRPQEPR
From the text: Several different reporter constructs were used in cotransfection experiments with IDX-1/pBJ5 expression vector. The SMS900CAT plasmid consists of nucleotides −900 to +54, relative to the transcription start site, of the rat somatostatin gene linked 5' to the coding sequence of the bacterial chloramphenicol acetyl transferase (CAT) gene (Powers et al., 1989, supra). The plasmid SMS900(Δ−250/−120)CAT is identical to SMS900CAT with the exception of an internal deletion between nucleotides −250 and −120. This deletion removes a putative transcriptional suppressor region located between nucleotides −237 and −189 of the rat somatostatin gene (Vallejo et al., in preparation). SMS(−900/−250) TKCAT contains −900 to −250 of the rat somatostatin gene linked 5' to the herpes simplex thymidine kinase promoter in the CAT reporter plasmid PUTKAT (Prost and Moore, 1986, Gene 45:107). The plasmids SMS900CAT(TAAT1mut), SMS900CAT(TAAT2mut) and SMS900CAT(UE-Bmut) were created using oligonucleotide-directed mutagenesis (Kunkel, 1985, Proc. Natl. Acad. Sci. USA 82:488) to introduce clustered nucleotide substitutions in the IDX-1 binding sites located at −450, −290, and —90, respectively, within the SMS900CAT reporter. For SMS-TAAT1, the central 5'-ATTAAT-3' was converted to 5'-GCCGGC-3'. […]

[5] = biological target: T1, IDX-1 (GST fusion, full length); test: EMSA; appears weaker than SMS-TAAT1; conditions: tags: N-terminal GST (pGEX-KG), bacterially expressed; label: 32P
Method: as §1, §2

T1 sequence (P52947 other isoform, or with tags, fused parts or gaps): as above

B1: INS1-FLAT (dsDNA)
DNA 1: GATCCTTGTTAATCTAATTACCCTAGGTCTAA
DNA 2: TTAGACCTAGGGTAATTAGATTAACAAGGATC
Question: Does B1 bind [1]?
Answer: binds

B2: SMS-UE-B (dsDNA)
DNA 1: GATCCGCGAGGCTAATGGTGCGTAAAAGCACTGGTGA
DNA 2: TCACCAGTGCTTTTACGCACCATTAGCCTCGCGGATC
Question: Does B2 bind [2]?
Answer: binds

B3: SMS-TAAT1 mutant (dsDNA)
DNA 1: GATCCCTGATTGCATGCCGGCTCTCAGATA
DNA 2: TATCTGAGAGCCGGCATGCAATCAGGGATC
modifications: [16-21]
Question: Does B3 bind [3]?
Answer: no binding

B4: 6x SMS-TAAT1 in SMS65CAT (dsDNA)
DNA 1: GATCCCTGATTGCATATTAATTCTCAGATA
DNA 2: TATCTGAGAATTAATATGCAATCAGGGATC
Question: B4 was tested. Which activity [4] did it give?
Answer: 34 fold

B5: SMS-UE-B mutant (dsDNA)
DNA 1: GATCCGCGAGGTCGGCAGTGCGTAAAAGCACTGGTGA
DNA 2: TCACCAGTGCTTTTACGCACTGCCGACCTCGCGGATC
modifications: [12-17]
Question: Does B5 bind [3]?
Answer: no binding

B6: SMS-TAAT2 mutant (dsDNA)
DNA 1: GATCCGATCTCAGCGGCCGATCATGCACCA
DNA 2: TGGTGCATGATCGGCCGCTGAGATCGGATC
modifications: [14-19]
Question: Does B6 bind [3]?
Answer: no binding

B7: SMS-TAAT2 (dsDNA)
DNA 1: GATCCGATCTCAGTAATTAATCATGCACCA
DNA 2: TGGTGCATGATTAATTACTGAGATCGGATC
Question: Does B7 bind [5]?
Answer: binds

B8: SMS-PS (dsDNA)
DNA 1: GATCCAGGCAAGATTATTTGGTCA
DNA 2: TGACCAAATAATCTTGCCTGGATC
Question: Does B8 bind [2]?
Answer: no binding
